Values of other authors, collected in paper PMC5394133 (Clinical Drug Investigation, 2017).
Where two headings read alike, the source gives them in different places.

Details: for Maximum concentration, mean / Total exposure, mean: total insulin concentration

| Substance | Maximum concentration, ratio thigh/abdomen (0.2 U/kg s.c.) | Maximum concentration, ratio upper arm/abdomen (0.2 U/kg s.c.) | Total exposure, ratio thigh/abdomen (0.2 U/kg s.c.) | Total exposure, ratio upper arm/abdomen (0.2 U/kg s.c.) | Maximum concentration, mean (0.2 U/kg s.c., abdomen) | Total exposure, mean (0.2 U/kg s.c., abdomen) | Maximum concentration, mean (0.2 U/kg s.c., thigh) | Total exposure, mean (0.2 U/kg s.c., thigh) | Maximum concentration, mean (0.2 U/kg s.c., upper arm) | Total exposure, mean (0.2 U/kg s.c., upper arm) | Maximum concentration, ratio thigh/abdomen (s.c.) | Maximum concentration, ratio upper arm/abdomen (s.c.) | Total exposure, ratio thigh/abdomen (s.c.) | Total exposure, ratio upper arm/abdomen (s.c.) | early exposure within 1 h after administration, lower for the thigh than for the abdomen (s.c.) | early exposure within 1 h after administration, lower for the upper arm than for the abdomen (s.c.) |
| --- | --- | --- | --- | --- | --- | --- | --- | --- | --- | --- | --- | --- | --- | --- | --- | --- |
| Insulin aspart | 84% | 101% | 97% | 105% | 501 pmol/L | 1.3 nM·h | 422 pmol/L | 1.265 nM·h | 506 pmol/L | 1.361 nM·h | – | – | – | – | – | – |
| Insulin lispro | 78% | 67% | 92% | 95% | 589 pmol/L | 1.388 nM·h | 458 pmol/L | 1.277 nM·h | 395 pmol/L | 1.313 nM·h | – | – | – | – | – | – |
| Insulin glulisine | – | – | – | – | – | – | – | – | – | – | 68% | 82% | 93% | 97% | ~ 40% | ~ 20% |
